The source of these data is publication PMC6082141.

Assay [1] addresses microtubules assembled from porcine brain tubulin (porcine) (UniProt P02550). Put plainly: TIRF microscopy, fluorescence intensity on MTs.
In assay [2] the target is carboxypeptidase A (CPA)-treated microtubules from porcine brain tubulin (porcine) (UniProt P02550). Nature of the assay: TIRF microscopy, fluorescence intensity on MTs.
Assay [3] deals with microtubules assembled from porcine brain tubulin (porcine) (UniProt P02550). Put plainly: TIRF microscopy, MT-MT sliding assay.
Assay [4] shares this target. Put plainly: single-molecule TIRF microscopy.

For “TMR-labeled p150-SNAP (from UniProt Q14203-1 1-1278) (natural protein)”, the integrated p150 intensity on the MT (minus background, per pixel) stood at 2950 a.u in assay [1] and 1100 a.u in assay [2].
With “dynein-dynactin-BicD2 co-complex (DDB) (from UniProt Q921C5 1-820; P38650 1-4644; P28023 1-1280)”, in assay [3], the lifetime (τ) of foci of two MT minus-ends brought into contact and held by DDB is 14.4 s. Besides, in assay [4], the dwell time at MT minus-ends, long population (τ2) worked out at 54.8 s; the percent of incoming molecules that dwell at MT minus-ends with DDB clusters was 83%; the percent of incoming molecules that dwell at bare (vacant) MT minus-ends was 77%.
